Source: the nanobody polyreactivity screen of Harvey et al. (2022)

Test: yeast display, Sf9 membrane polyspecificity reagent, FACS + sequencing; frameworks hold sequencing errors
In short: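 Nanobodies from a synthetic yeast display library (Saccharomyces cerevisiae BJ5465), induced 36–48 hours with galactose, were stained 1 hour at 4 °C with 10% biotinylated, detergent-solubilized Sf9 membrane reagent, enriched on streptavidin microbeads, then FACS-sorted. Anti-HA (expression) and streptavidin (reagent binding) fluorescence set low and high (top ~1%) gates. Polyreactivity labels come from the gate of origin. Genes were colony-PCR amplified, MiSeq 2 × 250 sequenced and filtered by CDR length.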

QVQLVESGGGLVQAGGSLRLSCAASGRIFSGYAMGWYRQAPGKERELVATITSGGGTYYADSVKGRFTISRDNAKNTVYLQMNSLKPEDTAVYYCNAEKKGSFRKYNYWGQGTQVTVSS
polyreactivity (PSR sort gate): low polyreactivity

QVQLVESGGGLVQAGGSLRLSCAASGRIFSINAMGWYRQAPGKERELVAAITWSGGSTYYADSVKGRFTISRDNAKNTVYLQMNILKPEDTAVYYCAARLPWYIPTPSYRIAGGNYWGQGTQVTVSS
polyreactivity (PSR sort gate): low polyreactivity

QVQLVESGGGLVQAGGSLRLSCAASGRIFSINTMGWYRQAPGKERELVAAISVSGGRTYYADSVKGRFTISRENAKKSVYVQMNSLKPEVTAGYYCGAYGTTRMDYWGQGTQVTVSS
polyreactivity (PSR sort gate): high polyreactivity

QVQLVESGGGLVQAGGSLRLSCAASGRIFSIYAMGWYRQAPGKERELVAAIRSVGDTNYADSVKGRFTISRDNAKNTVYLQMNSLNPEDTAVYYCAAGTSDGGYHYDFWGQGSQVTVSS
polyreactivity (PSR sort gate): high polyreactivity

QVQLVESGGGLVQAGGSLRLSCAASGRIFSIYAMGWYRQAPGKERELVAAISSRGGSTYYADSVKGRFTISRDNAKNTVYLQMNSLKPEDTAVYYCNAVSWEGYDFDYWGQGTQVTVSS
polyreactivity (PSR sort gate): high polyreactivity

QVQLVESGGGLVQAGGSLRLSCAASGRIFSIYAMGWYRQAPGKERELVAAITRGGRTNYADSVKGRFTISRDNAKNTVYLQMNSLKPEDTAVYYCAARRIDGVVKPYDYWGQGTQVTVSS
polyreactivity (PSR sort gate): low polyreactivity

QVQLVESGGGLVQAGGSLRLSCAASGRIFSKNAMGWYRQAPGKEMEFVATISYGDGSTYYADSVKGRFTISRDNAKNTVYLQMNSLKPEDTAVYYCAATIGHNGFDYWGQGTQVTVSS
polyreactivity (PSR sort gate): low polyreactivity

QVQLVESGGGLVQAGGSLRLSCAASGRIFSKNAMGWYRQAPGKVRELVAAISYITGSTYADSVKGRFKISRDNAKNTDYLQMNSLKPEYTAVYYCAASSTWYGYYIYVFRAYDYWGQGTQLTVSS
polyreactivity (PSR sort gate): low polyreactivity

QVQLVESGGGLVQAGGSLRLSCAASGRIFSKYGMGWYRQAPGKETEFVAAISGSGTNTYYADSVKGRFTISRDNAKNTVYLQMNSLKPEDTAVYYCAKRKSVRSTPSYEYWGQGTQVTVSS
polyreactivity (PSR sort gate): high polyreactivity

QVQLVESGGGLVQAGGSLRLSCAASGRIFSLYTMGWYRQAPGKERELVATINRSSVSTRYADSVKGRFTISRDNAKNTGYLQMNSLKPEDTAVYYCAAQRSTRYPLYYWGQGTQVTVSS
polyreactivity (PSR sort gate): high polyreactivity

QVQLVESGGGLVQAGGSLRLSCAASGRIFSLYTMGWYRQAPGKERELVATISIGGSTNYADSVKGRFTISRDNAKNTVYLQMNSLKPEDTAVYYCATDGSIGYNDRYTNDFDYWGQGTQVTVSS
polyreactivity (PSR sort gate): low polyreactivity

QVQLVESGGGLVQAGGSLRLSCAASGRIFSNNAMGWYRQAPGKERELVAAISSSGSTYYADSVKGRFTISRDNAKNTVYLQINSLKPEDTAVYYCAVVYGYPYLRGYVFGFNYWGQGTQVTVSS
polyreactivity (PSR sort gate): low polyreactivity

QVQLVESGGGLVQAGGSLRLSCAASGRIFSNNAMGWYRQAPGKERELVAASNRSGDGTYYADSVKGRFTSSRDHAKNTVYLQMNSLKPEDTAVYYCAVRYYWGYTSYGYWGQGTQVTVSS
polyreactivity (PSR sort gate): high polyreactivity

QVQLVESGGGLVQAGGSLRLSCAASGRIFSNNDMGWYRQAAGKERELVAAISKNGGRTYYADSVKGRFTISRDNAKNTVYLQMNSLKPEDTAVYYCAAPVKPVTGYYPYDYWGQGTQVTVSS
polyreactivity (PSR sort gate): high polyreactivity

QVQLVESGGGLVQAGGSLRLSCAASGRIFSPYAMGWYRQAPGKERELVAAITSSGGSTYYADSVKGRFTISRDNAKNTVYLQMNSLKPEDTAVYYCNARRGRYTPSVNYWGQGTQVTVSS
polyreactivity (PSR sort gate): high polyreactivity

QVQLVESGGGLVQAGGSLRLSCAASGRIFSPYVMGWYRQAPGKERELVAAITGSGGSTYYADSVKGRFTISRDNAKKTVYLQMNSLKPEDTAVYYCAVVSRTTAMDYRGQGTQVTVSS
polyreactivity (PSR sort gate): high polyreactivity

QVQLVESGGGLVQAGGSLRLSCAASGRIFSQYAMGWYRQAPGKEREFVASISRSGGRTYYADSVKGRFTISRDNAKNTVYLQMNSLKPEDTAVYYCAARAETRYYTYNYWGQGTQVTVSS
polyreactivity (PSR sort gate): high polyreactivity

QVQLVESGGGLVQAGGSLRLSCAASGRIFSRNAMGSYRQAPGKERELVAAITSGGSTYYADYVKGRFTISSDNAKNTVYLQLNSLKPEDTAVYTVKILRYDYWGQGTQVTVSS
polyreactivity (PSR sort gate): high polyreactivity

QVQLVESGGGLVQAGGSLRLSCAASGRIFSRNAMGWYRQAPGKERELVAAISRSGTSTYYADSVKGRFTISRDNAKNTVYLQMNSLKPEDTAVYYCAAYPYYDRDYWGQGTQVTVSS
polyreactivity (PSR sort gate): low polyreactivity

QVQLVESGGGLVQAGGSLRLSCAASGRIFSRYAMGLYRQAPGKERELVAAISWSGGSTYYADSVKGRFTISRDNAKNTVYLQMNSLNTEDTAVYYCAPPIKGSDSKYGYWGQCTQVTVSS
polyreactivity (PSR sort gate): high polyreactivity

QVQLVESGGGLVQAGGSLRLSCAASGRIFSRYAMGWYRQAPGKERELVAAISRSGGSTYYADSVKGRFTISRDNAKNTVYLQMNSLKPEDTAVYYCAARNVFSYPPGSYYYWGQGTQVTVSS
polyreactivity (PSR sort gate): high polyreactivity

QVQLVESGGGLVQAGGSLRLSCAASGRIFSRYAMGWYRQAPGKERELVAAISWSGGSTYYADSVKGRFTISRDNAKNTVYLQINSLKPEDTAVYYCAAKRQYTEYNYWGQGTQVTVSS
polyreactivity (PSR sort gate): high polyreactivity

QVQLVESGGGLVQAGGSLRLSCAASGRIFSRYAMGWYRQAPGKERELVAAITQSGTSTYYADSVKGRFTISRDNAKNTVYLQMNSLKPEDTAVYYCNAYRQYRYDYWGQGTQVTVSS
polyreactivity (PSR sort gate): low polyreactivity

QVQLVESGGGLVQAGGSLRLSCAASGRIFSRYAMGWYRQAPGKERELVATISSGGGTYYADSVKGRFTISRDNAKNTVYLQMNSLKPEDTAVYYCAAASYSGHGRYDDWGQGTQVPVSS
polyreactivity (PSR sort gate): high polyreactivity

QVQLVESGGGLVQAGGSLRLSCAASGRIFSRYAMGWYRQAPGKERELVATISSSRGGTSTNYADSVKGRFTISRDNAKNTVYLQMNSLKPEDTAVYYCNALYGRQIVDYDYWGQGTQVTVSS
polyreactivity (PSR sort gate): low polyreactivity

QVQLVESGGGLVQAGGSLRLSCAASGRIFSRYAMGWYRQAPGKERELVATITISGGSTYYADSVKGRFTISRDNAKNTVYLQMNSLKPEDTAVYYCAAETTASYYKRTDDYDYWGQGTQVTVSS
polyreactivity (PSR sort gate): low polyreactivity

QVQLVESGGGLVQAGGSLRLSCAASGRIFSRYAMGWYRQAPVKERELVADITYNGGSTYYADSVKGRFTISRDNAKHTVYLQMNSLQPDDTAVYYCNAVEVLDEGWGFWYYYWGQATQVTVSS
polyreactivity (PSR sort gate): high polyreactivity

QVQLVESGGGLVQAGGSLRLSCAASGRIFSRYTMVWYRQAPRKERELVAAISSSGGSTYYADSVKGRFTISRDNAKNTVYLQMNSLKQEDTAVYYCAARQYIGSPPHRRRFDYWGQGTQVTVSS
polyreactivity (PSR sort gate): high polyreactivity

QVQLVESGGGLVQAGGSLRLSCAASGRIFSSNAMGWYRQAPGKARELVAAISTSGSTKYADSVKGRFTSSRDNAKNTVYLLMNSLKPEDTAVYYCAAKGYEYRYRYDYWGQGTQVTVSW
polyreactivity (PSR sort gate): high polyreactivity

QVQLVESGGGLVQAGGSLRLSCAASGRIFSSYAMGWYRQAPGKERELVAAISSRGGSTYYADSVKGRFTISRDNAKNTVYLQMNSLKPEDTAVNYCAKGLTALGDYWGQCTQVTVSS
polyreactivity (PSR sort gate): high polyreactivity

QVQLVESGGGLVQAGGSLRLSCAASGRIFSSYAMGWYRQAPGKERELVASIDWSDGSTYYADSVKGRFTIARDNAKNTVYLQMTSLKPEDTAVYYCAADFVPYLIYGYWGQGTQVTVTS
polyreactivity (PSR sort gate): low polyreactivity

QVQLVESGGGLVQAGGSLRLSCAASGRIFSSYAMGWYRQEPGKERELVAVIRWSSGSTYYADSVKGRFTISRDNAKNTVYLQMNSLKPEDTAVYYCAALRRRSTKFEHDYWGQGTQVTVSS
polyreactivity (PSR sort gate): high polyreactivity

QVQLVESGGGLVQAGGSLRLSCAASGRIFSSYDMGWYRQAPGKERELDAAISSRTGITNYADSVKGRFTISRDNAKNTVYLQMNSLKPEDTAVYYCAKVGWYGYTRSYKYGYWGQGTQVTVSS
polyreactivity (PSR sort gate): high polyreactivity

QVQLVESGGGLVQAGGSLRLSCAASGRIFSTNAMGWYIQAPGKERELVAAISKNGGRTYYADSVKWRFTISRDNAKNTVYLQMNSLKPEDTAVYYCAAPVKPVTGYYPYDYWGQGTQVTVSS
polyreactivity (PSR sort gate): high polyreactivity

QVQLVESGGGLVQAGGSLRLSCAASGRIFSTNAMGWYRQAPGKERELVARINSGGGSTYADSVKGRFTISRDNAKNTVYLQMNSLKPEDTAVYYCAASRRFQWRAYGYWGQGTQVTVSS
polyreactivity (PSR sort gate): high polyreactivity

QVQLVESGGGLVQAGGSLRLSCAASGRIFSTNAMGWYRQAPGTERELVAAISRRGASTYYADSVKGRFTISRDNAKNTVYLQMNSLKPEDTAVYYCAAVIGTGGRYNYWGQGTQVTVSS
polyreactivity (PSR sort gate): high polyreactivity

QVQLVESGGGLVQAGGSLRLSCAASGRIFSTYVMGWYRQAPGKERELVAAITRGGSTNYADSVKGRFTISRDNAKNTVYLQMNSLKPEDTAVYYCNAQRRGTYYWGQATQVTVSS
polyreactivity (PSR sort gate): high polyreactivity

QVQLVESGGGLVQAGGSLRLSCAASGRIFSVYAMGWYRQAPGKEREFVAAITKGGVGTYYADSVKGRFTISRDHAKNSVYLQMNSLKPEDTAVYYFAARHYYGADRYYSWGQGTQVTVSS
polyreactivity (PSR sort gate): high polyreactivity

QVQLVESGGGLVQAGGSLRLSCAASGRIFSWYAMGWYRQAPGKERELVADITNGGSTYYADSVKGRFTISRDNAKNTVYLQMNSLKPEDTAVYYCAAAYIHRLGRVLPSVYSIGRDYWGQGTQVTVSS
polyreactivity (PSR sort gate): low polyreactivity

QVQLVESGGGLVQAGGSLRLSCAASGRIFSWYTMGWYRQAPGKERELVASITTGGRTYYADSLKGRFTNSRDNAKNTVYLQMNSLKPEDTAVYSCIVLSTLFGYYRWGDYWGQGTQVTVSS
polyreactivity (PSR sort gate): high polyreactivity

QVQLVESGGGLVQAGGSLRLSCAASGRIFSYMGWYRQAPGKERELVASISWSGGSTYYADSVKGRFTISRDNAKNTVYLQMNSLKPEDTAVYYCAAYLRSYVRYYYWGQGTQVTVSS
polyreactivity (PSR sort gate): high polyreactivity

QVQLVESGGGLVQAGGSLRLSCAASGRIFSYNAMGWYRQAPGKERELVAAISSDGSTYYADSVKGRFTISRDNAKNSVYLQMNSLKPEDTAVYYCAADTWRDGDDYWGQGTQVTVSS
polyreactivity (PSR sort gate): low polyreactivity

QVQLVESGGGLVQAGGSLRLSCAASGRIFSYNAMGWYRQAPGKERELVASISWSGGRTYYADSVKGRFTISRDNAKNTVYLQMNSLKPEDTAVYYCNAAYYTRVWGYDYWGQGTQVTVSS
polyreactivity (PSR sort gate): high polyreactivity
